Values quoted from earlier work, collected in patent publication US5916869A, “Method of treating birds in ovo” (North Carolina State University, priority 1997, dated 1999).

Tested on: sodium-dependent duodenal active transport
Settings: sheep, injected

B1: recombinant bovine growth hormone (protein, UniProt P01246 27-217, looked up)
Somatotropin: AFPAMSLSGLFANAVLRAQHLHQLAADTFKEFERTYIPEGQRYSIQNTQVAFCFSETIPAPTGKNEAQQKSDLELLRISLLLIQSWLGPLQFLSRVFTNSLVFGTSDRVYEKLKDLEEGILALMRELEDGTPRAGQILKQTYDKFDTNMRSDDALLKNYGLLSCFRKDLHKTETYLRVMKCRRFGEASCAF
notes: recombinant bovine growth hormone injected into sheep in a cited study
increase of sodium-dependent duodenal active transport of glucose: approximately 60%
increase of transport of proline: approximately 30%
